# T1: mouse Protein C (zymogen) (mouse, UniProt P33587 42-460)
# T1 construct: mature; also called mouse PC
# T1 sequence (looked up): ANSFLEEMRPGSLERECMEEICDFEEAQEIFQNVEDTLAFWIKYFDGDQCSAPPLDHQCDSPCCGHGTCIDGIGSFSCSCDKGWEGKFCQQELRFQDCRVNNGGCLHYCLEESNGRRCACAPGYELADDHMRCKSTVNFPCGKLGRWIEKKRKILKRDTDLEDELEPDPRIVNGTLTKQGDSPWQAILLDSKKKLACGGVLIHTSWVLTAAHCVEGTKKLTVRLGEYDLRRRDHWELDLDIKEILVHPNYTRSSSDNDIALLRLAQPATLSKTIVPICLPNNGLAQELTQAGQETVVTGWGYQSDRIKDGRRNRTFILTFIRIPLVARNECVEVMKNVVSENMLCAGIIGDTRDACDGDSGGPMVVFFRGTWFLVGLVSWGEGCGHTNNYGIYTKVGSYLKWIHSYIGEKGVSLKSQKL
# T2: dog Protein C (zymogen) (dog, UniProt Q28278 43-456)
# T2 construct: mature; also called dog PC
# T2 sequence (looked up): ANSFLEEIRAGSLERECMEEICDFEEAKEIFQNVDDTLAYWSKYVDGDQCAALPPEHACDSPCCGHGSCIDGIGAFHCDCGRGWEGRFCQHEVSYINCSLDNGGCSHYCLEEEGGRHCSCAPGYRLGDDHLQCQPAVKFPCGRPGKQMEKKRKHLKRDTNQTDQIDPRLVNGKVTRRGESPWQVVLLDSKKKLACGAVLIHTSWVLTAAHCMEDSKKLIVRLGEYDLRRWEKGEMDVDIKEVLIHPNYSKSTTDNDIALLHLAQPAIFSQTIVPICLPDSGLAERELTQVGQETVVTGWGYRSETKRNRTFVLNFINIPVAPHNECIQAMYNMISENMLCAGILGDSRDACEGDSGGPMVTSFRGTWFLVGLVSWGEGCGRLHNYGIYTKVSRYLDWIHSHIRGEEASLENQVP
# T3: dog activated Protein C (dog, UniProt Q28278 43-456)
# T3 construct: mature; also called dog aPC; dAPC
# T3 sequence (looked up): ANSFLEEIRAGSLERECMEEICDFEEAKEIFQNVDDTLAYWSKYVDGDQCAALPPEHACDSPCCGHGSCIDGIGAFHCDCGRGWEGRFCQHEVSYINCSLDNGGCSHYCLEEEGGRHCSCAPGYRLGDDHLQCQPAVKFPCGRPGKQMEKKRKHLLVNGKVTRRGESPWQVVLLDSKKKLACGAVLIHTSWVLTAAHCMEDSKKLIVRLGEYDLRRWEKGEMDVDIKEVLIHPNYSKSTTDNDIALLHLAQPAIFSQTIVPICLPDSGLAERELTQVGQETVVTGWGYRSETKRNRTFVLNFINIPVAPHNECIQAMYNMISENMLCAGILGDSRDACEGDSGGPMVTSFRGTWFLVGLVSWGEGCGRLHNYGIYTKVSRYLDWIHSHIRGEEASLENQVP
# B1: T46J23-hIgG1 (antibody, V domains shown)
# VH: EVQLLESGGGLVQPGGSLRLSCAASGFTFGNHWMTWVRQAPGKGLEWVSGVSWNGSRTHYADSVKGRFTISRDNSKNTLYLQMNSLRAEDTAVYYCALTGRSGWMRFPNWFDPWGQGTLVTVTS
# VL: LTQPPSASGTPGQRVTISCTGTSSNIGAGYDVHWYQQLPGTAPKLLIYDNNNRPSGVPDRFSGSKSGTSASLAISGLRSEDEADYYCAAWDDSLNGVVFGGGTKLTVLG
# notes: also called T46J23-IgG
# B2: R41E3 hIgG1 (antibody, V domains shown)
# VH: EVQLLESGGGLVQPGGSLRLSCAASGFTFNNYAMTWVRQAPGKGLEWVSGVSWNGSRTHYADSVKGRFTISRDNSKNTLYLQMNSLRAEDTAVYYCARADSSSAGRWAGSLDYWGQGTLVTVTS
# VL: LTQPPSASGTPGQRVTISCSGSSSNIGNNAVNWYQQLPGTAPKLLIYSNNQRPSGVPDRFSGSKSGTSASLAISGLRSEDEADYYCSSYTSSSTHVVFGGGTKLTVLG
# notes: also called R41E3-IgG
# B3: R41E3 Fab (Fab, V domains shown)
# VH: EVQLLESGGGLVQPGGSLRLSCAASGFTFNNYAMTWVRQAPGKGLEWVSGVSWNGSRTHYADSVKGRFTISRDNSKNTLYLQMNSLRAEDTAVYYCARADSSSAGRWAGSLDYWGQGTLVTVTS
# VL: LTQPPSASGTPGQRVTISCSGSSSNIGNNAVNWYQQLPGTAPKLLIYSNNQRPSGVPDRFSGSKSGTSASLAISGLRSEDEADYYCSSYTSSSTHVVFGGGTKLTVLG
# notes: Human Fab (lambda), expressed in E. coli
# B4: T46J23 Fab (Fab, V domains shown)
# VH: EVQLLESGGGLVQPGGSLRLSCAASGFTFGNHWMTWVRQAPGKGLEWVSGVSWNGSRTHYADSVKGRFTISRDNSKNTLYLQMNSLRAEDTAVYYCALTGRSGWMRFPNWFDPWGQGTLVTVTS
# VL: LTQPPSASGTPGQRVTISCTGTSSNIGAGYDVHWYQQLPGTAPKLLIYDNNNRPSGVPDRFSGSKSGTSASLAISGLRSEDEADYYCAAWDDSLNGVVFGGGTKLTVLG
# notes: as for B3
# Experiments:
# activated Factor VII = assay: direct ELISA, FVIIa coated at 10 ug/ml, positive control antibody specific for the antigen, concentration not given
# activated Factor VII, sequence (P08709 61-212, chain 1 of 2): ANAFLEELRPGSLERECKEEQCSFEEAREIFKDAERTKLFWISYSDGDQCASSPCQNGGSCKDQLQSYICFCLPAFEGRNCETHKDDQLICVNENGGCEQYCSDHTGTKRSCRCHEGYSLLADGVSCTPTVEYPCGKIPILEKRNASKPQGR
# activated Factor VII, sequence (P08709 213-466, chain 2 of 2): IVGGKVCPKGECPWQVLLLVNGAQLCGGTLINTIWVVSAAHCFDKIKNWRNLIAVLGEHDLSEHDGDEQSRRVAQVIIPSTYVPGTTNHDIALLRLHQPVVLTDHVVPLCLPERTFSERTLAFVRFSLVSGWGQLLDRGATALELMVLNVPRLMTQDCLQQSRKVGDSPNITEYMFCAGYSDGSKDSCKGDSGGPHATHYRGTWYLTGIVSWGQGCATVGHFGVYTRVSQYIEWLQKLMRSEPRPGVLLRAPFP
# [1] = biological target: activated Factor II (thrombin) (Homo sapiens (Human)) (UniProt P00734); assay: direct ELISA, FIIa coated at 10 ug/ml, positive control antibody specific for the antigen, concentration not given
# activated Factor IX = assay: direct ELISA, FIXa coated at 5 ug/ml, positive control antibody specific for the antigen, concentration not given
# [2] = biological target: T1, mouse Protein C (zymogen); assay: direct ELISA, mPC coated at 10 ug/ml, positive control antibody specific for the antigen, concentration not given
# dog Protein C (zymogen) [3] = biological target: T2, dog Protein C (zymogen); assay: direct ELISA, dPC coated at 10 ug/ml, positive control antibody specific for the antigen, concentration not given
# activated Factor X = assay: direct ELISA, FXa coated at 10 ug/ml, positive control antibody specific for the antigen, concentration not given
# activated Factor X, sequence (P00742 41-179, chain 1 of 2): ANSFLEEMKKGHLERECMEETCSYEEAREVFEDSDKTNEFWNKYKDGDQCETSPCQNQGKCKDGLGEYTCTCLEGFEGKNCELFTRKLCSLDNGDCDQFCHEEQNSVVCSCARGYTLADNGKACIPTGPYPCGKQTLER
# activated Factor X, sequence (P00742 235-488, chain 2 of 2): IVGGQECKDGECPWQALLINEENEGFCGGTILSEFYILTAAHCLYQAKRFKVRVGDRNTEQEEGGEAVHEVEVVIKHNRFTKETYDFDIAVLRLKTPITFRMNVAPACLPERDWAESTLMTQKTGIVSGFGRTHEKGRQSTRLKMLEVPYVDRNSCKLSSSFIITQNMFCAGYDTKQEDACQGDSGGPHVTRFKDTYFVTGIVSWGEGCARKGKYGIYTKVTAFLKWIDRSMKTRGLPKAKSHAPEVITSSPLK
# [4] = biological target: T4, human activated Protein C (human, UniProt P04070 43-461); assay: direct ELISA, hAPC coated at 1 ug/ml, positive control antibody specific for the antigen, concentration not given
# [5] = biological target: T4, human activated Protein C; assay: cell-based or functional assay
# [6] = biological target: mouse activated Protein C (mouse) (UniProt P33587); assay: direct ELISA, aPC coated, hIgG1
# [7] = biological target: rabbit activated Protein C (rabbit) (UniProt Q28661); assay: direct ELISA, aPC coated, hIgG1
# [8] = biological target: mouse activated Protein C (mouse) (UniProt P33587); assay: direct ELISA, hIgG1
# dog activated Protein C [9] = biological target: T3, dog activated Protein C; assay: direct ELISA, aPC coated, hIgG1
# [10] = biological target: T4, human activated Protein C; assay: direct ELISA, aPC coated, hIgG1
# dog activated Protein C [11] = biological target: T3, dog activated Protein C; assay: ELISA, hIgG1
# [12] = biological target: T4, human activated Protein C; assay: ELISA, hIgG1
# dog activated Protein C [13] = biological target: T3, dog activated Protein C; assay: cell-based or functional assay
# [14] = biological target: T4, human activated Protein C; assay: cell-based or functional assay; remark: listed apart in the source
# [15] = biological target: T4, human activated Protein C; assay: cell-based or functional assay; remark: listed apart in the source
# [16] = biological target: rabbit activated Protein C (rabbit) (UniProt Q28661); assay: ELISA, hIgG1
# dog Protein C (zymogen) [17] = biological target: T2, dog Protein C (zymogen); assay: direct ELISA, antigen coated
# [18] = biological target: rabbit activated Protein C (rabbit) (UniProt Q28661); assay: cell-based or functional assay
# [19] = biological target: T4, human activated Protein C; assay: ELISA titration, IgG against Fab
# dog activated Protein C [20] = biological target: T3, dog activated Protein C; assay: direct ELISA, antigen coated at 1 ug/ml, IgG at 20 nM, anti-human IgG-HRP, AmplexRed (RFU)
# [21] = biological target: T1, mouse Protein C (zymogen); assay: direct ELISA, mPC coated at 10 ug/ml, Fab at 20 nM, anti-human Fab-HRP, AmplexRed (RFU)
# Experimental: (§1) To determine the binding selectivity of these fabs, their binding activities to the proenzyme human PC, to thrombin (FIIa), and to the activated Factor II (FIIa, thrombin), Factor VII (FVIIa), Factor IX (FIXa), and Factor X (FXa) were also assessed by ELISA. Briefly, an ELISA plate was coated with human aPC at 1 ug/ml, mouse PC at 10 ug/ml, dog PC at 10 ug/ml, other coagulation factors (FIIa, FVIIa, FIXa, FXa) at 5-10 ug/ml. Anti-aPC Fabs were added to the wells at 20 nM (1 ug/ml). Bound Fabs were detected by the secondary antibody (anti-human Fab-HRP) followed by HRP substrate AmplexRed.
# [22] = biological target: T4, human activated Protein C; assay: direct ELISA, antigen coated, Fab
# [23] = biological target: T4, human activated Protein C; assay: Biacore, Fab
# [24] = biological target: T4, human activated Protein C; assay: ELISA titration
# dog activated Protein C [25] = biological target: T3, dog activated Protein C; assay: direct ELISA, antigen coated at 100 ng/well, Fab at 20 nM (1 ug/ml), anti-human Fab-HRP, AmplexRed (RFU)
# Experimental: (§2) FIG. 3 depicts a graph characterizing anti-APC Fabs by direct ELISA. An ELISA plate was coated with human PC (hPC), human aPC (hAPC), dog aPC (dAPC), mouse aPC (mAPC) at 100 ng per well. Purified Fabs designate on the X-axis were added to the plate at 20 nM (1 ug/ml). Bound Fab was detected by the secondary antibody (anti-human Fab-HRP) followed by HRP substrate AmplexRed. The purified Fabs preferentially bind to human aPC and, with the exception of Fab R41C17, show little to no binding to human PC.
# (§3) Antigens were coated directly on ELISA plates. Coating antigens included human PC (plasma-derived), human aPC (recombinant), dog aPC (plasma-derived), and mouse aPC (recombinant) at 100 ng/well in PBS/Ca buffer. After blocking the plate with 5% milk/PBS and washing the plate with PBS-Tween20, soluble Fabs (1 ug/ml, 20 nM) were added to the plate and incubated for 1 h at RT with shaking. Fab binding was detected with anti-human Fab (lambda) antibody-HRP and Amplex red as substrate. […] In contrast, R41C17 binds to both human APC and human PC. Also shown in FIG. 3 is cross-species reactivity of Fabs by ELISA.
# [26] = biological target: T5, human Protein C (zymogen) (human, UniProt P04070 43-461); assay: as above
# T5 construct: also called human PC; hPC
# Experimental: as §2, §3
# dog Protein C (zymogen) [27] = biological target: T2, dog Protein C (zymogen); assay: direct ELISA, dPC coated at 10 ug/ml, Fab at 20 nM, anti-human Fab-HRP, AmplexRed (RFU)
# Experimental: as §1
# dog activated Protein C [28] = biological target: T3, dog activated Protein C; assay: direct ELISA, antigen coated, Fab
# dog activated Protein C [29] = biological target: T3, dog activated Protein C; assay: Biacore, Fab
# dog activated Protein C [30] = biological target: T3, dog activated Protein C; assay: ELISA and Biacore, as the sentence says
molecule,measurement,setting,value
control Ab (specific for each antigen) (antibody),RFU,activated Factor VII,10300 RFU
same,RFU,[1],6050 RFU
same,RFU,activated Factor IX,7370 RFU
same,RFU,[2],331 RFU
same,RFU,dog Protein C (zymogen) [3],476 RFU
same,RFU,activated Factor X,6460 RFU
same,RFU,[4],11700 RFU
B1,"IC50 (read off the curve), amidolytic activity of human aPC [b]",[5],~8 nM
same,EC50,[6],4.6 nM
same,EC50,[7],7 nM
same,EC50,[8],6 nM
same,EC50,dog activated Protein C [9],1.68 nM
same,EC50,[10],2.18 nM
same,EC50,dog activated Protein C [11],1.7 nM
same,EC50,[12],2.2 nM
same,"Anti-aPC IC50 (nM), Amidolytic activity",dog activated Protein C [13],625 nM
same,"Anti-aPC IC50 (nM), Amidolytic activity",[14],18 nM
same,"aPTT, inhibition of aPC activity at 1 ug/ml IgG (1:1 molar ratio)",[15],~50%
same,EC50,[16],1.7 nM
same,binding result,dog Protein C (zymogen) [17],no binding
same,"Anti-aPC IC50 (nM), Amidolytic activity",[18],17 nM
B2,fold increase of binding affinity against the corresponding Fab,[19],~50 fold
same,binding result,dog activated Protein C [20],no binding (tested: 20 nM)
same,EC50,[10],1.76 nM
same,"aPTT, inhibition of aPC activity at 163-fold molar excess",[15],~80%
B3,binding result,[21],no binding (tested: 20 nM)
same,EC50,[22],10.4 nM
same,Kd,[23],11 nM
same,EC50,[24],104 nM
same,binding result,dog activated Protein C [25],no binding (tested: 20 nM)
same,binding result,[26],no binding (tested: 20 nM)
same,binding result,dog Protein C (zymogen) [27],no binding (tested: 20 nM)
B4,EC50,dog activated Protein C [28],16.6 nM
same,EC50,[22],6.7 nM
same,Kd,dog activated Protein C [29],21 nM
same,Kd,[23],4.1 nM
same,Kd,dog activated Protein C [30],22 nM
same,binding result,dog Protein C (zymogen) [27],no binding (tested: 20 nM)

# Reference: US20150307625A1 (Bayer, published 2015)
